Where no end group is shown, it is not given here. [ ]: non-standard residue; d: D form.
B1: …s (SEQ ID NO: 110) (peptide)
peptide: MSGLEQELRRRLTP[code s]
modifications: not fully specified; printed as MSGLEQELRRRLTPs
B2: gp…. (SEQ ID NO: 108) (peptide)
peptide: GPSGLEQELRRRL

Tests used:
[1] = target: NbALFA^ST (NbALFA clone 1G5); experiment: off-rate assay: peptide elution from NbALFA^ST resin; tag position N
[2] = target: NbALFA^ST (NbALFA clone 1G5); experiment: off-rate assay: peptide elution from NbALFA^ST resin; tag position C

Chain of NbALFA^ST (NbALFA clone 1G5) (VHH, as listed by the source): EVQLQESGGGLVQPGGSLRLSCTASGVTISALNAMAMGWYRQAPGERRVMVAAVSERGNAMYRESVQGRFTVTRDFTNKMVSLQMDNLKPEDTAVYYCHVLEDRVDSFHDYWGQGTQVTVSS

Row | Binder | t1/2 [1] | t1/2 [2]
1 | B1 | < 2 min | 
2 | B2 |  | < 2 min

Source: US20260103490A1
